B1: Dynamin-1-like protein (Rattus norvegicus (Rat)), O35303 (parent)
chain: MEALIPVINKLQDVFNTVGADIIQLPQIVVVGTQSSGKSSVLESLVGRDLLPRGTGVVTRRPLILQLVHVSPEDKRKTTGEENDPATWKNSRHLSKGVEAEEWGKFLHTKNKLYTDFDEIRQEIENETERISGNNKGVSPEPIHLKVFSPNVVNLTLVDLPGMTKVPVGDQPKDIELQIRELILRFISNPNSIILAVTAANTDMATSEALKISREVDPDGRRTLAVITKLDLMDAGTDAMDVLMGRVIPVKLGIIGVVNRSQLDINNKKSVTDSIRDEYAFLQKKYPSLANRNGTKYLARTLNRLLMHHIRDCLPELKTRINVLAAQYQSLLNSYGEPVDDKSATLLQLITKFATEYCNTIEGTAKYIETSELCGGARICYIFHETFGRTLESVDPLGGLNTIDILTAIRNATGPRPALFVPEVSFELLVKRQIKRLEEPSLRCVELVHEEMQRIIQHCSNYSTQELLRFPKLHDAIVEVVTCLLRKRLPVTNEMVHNLVAIELAYINTKHPDFADACGLMNNNIEEQRRNRLARELPSAVSRDKSSKVPSALAPASQEPSPAASAEADGKLIQDNRRETKNVASAGGGIGDGGRIGDGGQEPTTGNWRGMLKTSKAEELLAEEKSKPIPIMPASPQKGHAVNLLDVPVPVARKLSAREQRDCEVIERLIKSYFLIVRKNIQDSVPKAVMHFLVNHVKDTLQSELVGQLYKSSLLDDLLTESEDMAQRRKEAADMLKALQGASQIIAEIRETHLW

Variants of: B1
Conditions: with kapca_rat Prkaca

effect of a mutation on the interaction	Variant
disrupting interaction	S656A
